Target: human plasma-derived coagulation Factor X (FX) (human) (UniProt P00742)
Test: cell-based or functional assay

Chain of human plasma-derived coagulation Factor X (FX) (human) (P00742 41-179, chain 1 of 2): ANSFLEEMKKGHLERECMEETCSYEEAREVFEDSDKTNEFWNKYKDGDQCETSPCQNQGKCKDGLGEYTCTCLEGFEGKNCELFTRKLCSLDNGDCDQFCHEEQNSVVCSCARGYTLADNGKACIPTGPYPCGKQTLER
Chain of human plasma-derived coagulation Factor X (FX) (human) (P00742 183-488, chain 2 of 2): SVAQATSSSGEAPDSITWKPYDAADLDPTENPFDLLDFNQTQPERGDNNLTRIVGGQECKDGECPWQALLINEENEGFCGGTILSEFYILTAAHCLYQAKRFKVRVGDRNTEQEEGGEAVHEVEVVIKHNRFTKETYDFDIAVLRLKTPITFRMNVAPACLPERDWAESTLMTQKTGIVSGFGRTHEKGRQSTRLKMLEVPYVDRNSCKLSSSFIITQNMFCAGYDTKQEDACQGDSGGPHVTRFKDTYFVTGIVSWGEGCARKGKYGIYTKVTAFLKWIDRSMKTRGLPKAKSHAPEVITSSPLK

KM of FX activation by 0.1 nM FIXa with phospholipid vesicles, antibody at 300 nM: 0.0535 µM
Substance: Emicizumab sequence identical analogue (SIA) (bispecific antibody)
